Experimental data from US20210070886.

Tests used:
[1] = biological target: fluorescein labeled bovine serum albumin (BSA), free in solution (UniProt P02769)
[2] = biological target: fluorescein-modified BSA encapsulated in octahedra-shaped DNA origami (OCs) (UniProt P02769)
fluorescein-modified BSA encapsulated in octahedra-shaped DNA origami (OCs), sequence (P02769 25-607): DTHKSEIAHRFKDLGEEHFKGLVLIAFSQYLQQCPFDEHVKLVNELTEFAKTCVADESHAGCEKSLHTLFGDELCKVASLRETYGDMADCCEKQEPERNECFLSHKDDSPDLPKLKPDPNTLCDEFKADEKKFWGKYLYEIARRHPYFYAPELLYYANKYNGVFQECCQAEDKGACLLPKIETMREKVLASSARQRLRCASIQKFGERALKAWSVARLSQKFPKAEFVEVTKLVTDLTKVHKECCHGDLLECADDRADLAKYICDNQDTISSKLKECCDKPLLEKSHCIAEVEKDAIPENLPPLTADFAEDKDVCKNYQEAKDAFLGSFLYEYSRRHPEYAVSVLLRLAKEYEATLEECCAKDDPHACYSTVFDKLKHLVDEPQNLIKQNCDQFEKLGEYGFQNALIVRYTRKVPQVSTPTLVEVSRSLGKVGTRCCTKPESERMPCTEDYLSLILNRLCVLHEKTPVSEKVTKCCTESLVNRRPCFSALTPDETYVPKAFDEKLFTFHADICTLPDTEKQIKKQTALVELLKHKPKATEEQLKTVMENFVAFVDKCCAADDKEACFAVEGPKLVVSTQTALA

trypsin, sequence (P00760 24-246): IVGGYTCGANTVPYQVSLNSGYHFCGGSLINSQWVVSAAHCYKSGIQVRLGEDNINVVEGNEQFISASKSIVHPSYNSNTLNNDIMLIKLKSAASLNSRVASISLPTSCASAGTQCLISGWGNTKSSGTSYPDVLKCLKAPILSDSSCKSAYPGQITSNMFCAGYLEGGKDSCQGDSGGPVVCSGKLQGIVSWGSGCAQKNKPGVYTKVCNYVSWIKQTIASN
fluorescein labeled bovine serum albumin (BSA), free in solution, sequence (P02769 25-607): as the sequence (P02769 25-607) above

## trypsin
[1]
  fluorescence enhancement of fluorescein labeled BSA in solution on tryptic digestion: an 85% increase in the fluorescence intensity
[2]
  fluorescence enhancement on tryptic digestion, BSA encapsulated inside PE2-coated OCs: further reduced to ˜14% by PE2 coating on the OC surface
  fluorescence enhancement on tryptic digestion, BSA encapsulated inside bare OCs: reduced to ˜40% by protein encapsulation inside the OCs
